In patent US8288112B2, “Protein, an antibody and measurement of the protein” (P&M Venge AB, priority 2006, dated 2012):

Legend:
[1] = Enzyme assay: free fatty acid release from phospholipid substrates (NEFA-C kit); format: biochemical; conditions: for activity increase by pre-incubation with released materials from PMA-induced neutrophils: partly activated protein 0.5 μg stored for 19 weeks
Experimental: Enzyme assay. The reaction mixture (40 μl final volume) contained 10 mM substrates, 100 mM phosphate buffer containing 3 mM of sodium azide (NaN3) and 0.5% Triton X-100, pH 7.4, and 0.5 μg of enzyme or as indicated. Since the formation of the product (fatty acid) was linear with time for at least 24 h under the standard conditions, the reaction mixture was incubated for 18-20 h and the reaction was stopped by cooling on ice. Free fatty acid (FFA) was determined by means of the NEFA-C kit (WAKO chemicals, Neuss, Germany) according to the instructions of the manufacturer.
Experiment A: Didecanoyl-PC was incubated with the purified protein at different time of storage and free fatty acid release was measured. Enzymatic reactions were carried out with 0.5 μg of the purified protein for 20 h at 37° C.
Experiment B: Free fatty acid release from phospholipids, didecanoyl-PC (Dideca-PC), dipalmitoyl-PC (Dipalmi-PC), phosphatidylinositol (PI), phosphatidylethanolamine (PE) and lysophosphatidylcholine (Lyso-PC) was measured. Enzymatic reactions were carried out with 0.5 μg of the purified protein (stored at 4° C. for 15 w) for 18-20 h at 37° C.
Experiment C: The purified protein (stored at 4° C. for 16 w) was preincubated at room temperature or 37° C. for 15 min with released materials (0.5 μg) induced from neutrophils by PMA before incubation with Didecanoyl-PC. Enzymatic reactions were carried out with 0.5 μg of the protein for 20 h at 37° C. and free fatty acid release was measured.
Analyses of the pH optimum, Km and Vmax. The purified protein (0.5 μg) was added to tubes containing Didecanoyl-PC at varying pH (4.0-9.0). The Km and Vmax were calculated from Hanes plots of s/vi on Didecanoyl-PC concentration (s).

[2] = Positional specificity (sn-2) assay with radiolabeled phosphatidylcholine; format: biochemical; conditions: 1-palmitoyl-2-[1-14C]palmitoyl-PC, 20 h at 37° C.
Experimental: Positional specificity of the purified enzyme was determined using 1-palmitoyl-2-hydroxyl-phosphatidylcholine (1-palmitoyl-2-hydroxyl-PC) and 1-palmitoyl-2-[1-^14C]palmitoyl-phosphatidylcholine (1-palmitoyl-2-[1-^14C]palmitoyl-PC) as substrates. The hydrolyzing activity of the enzyme at the position of sn-1 acyl ester bonds of glycerophospholipids was determined as described above using 1-palmitoyl-2-hydroxyl-PC as substrate. […] Radiolabeled fatty acids were quantified by scintillation counting.
Experiment D: Detection of phopholipase A2 activity. Radioactive phospholipid, 1-palmitoyl-2-[1-^14C]palmitoyl-PC was incubated without (Control) or with 1 μg of the purified protein (stored at 4° C. 16 w) for 20 h at 37° C. and radioactivity was counted as described in the materials and methods section.

pH optimum ([1]; didecanoyl-PC as substrate, incubated at 37° C.): 7.4
deacylation activity ([1]; freshly purified protein, didecanoyl-PC, dipalmitoyl-PC, PI, PE, Lyso-PC substrates): No activity was detected
deacylation activity on didecanoyl-PC ([1]; purified protein stored at 4° C. for some period of time): removed fatty acid from didecanoyl-PC
deacylation activity on Lyso-PC ([1]; stored purified protein): showed deacylation activity
deacylation activity on PE ([1]; stored purified protein): showed deacylation activity
B1: HPLB-II: Novel phospholipase B from human neutrophil granules; about 130 kDa oligomer of 25 and 45 kDa fragments of hypothetical protein FLJ22662 (protein)
chain 1: MPAEKTVQVKNVMDKNGDAYGFYNNSVKTTGWGILEIRAGYGSQTLSNEIIMFVAGFLEGYLTAPHMNDHYTNLYPQLITKPSIMDKVQDFMEKQDKWTRKNIKEYKTDSFWRHTGYVMAQIDGLYVGAK
chain 2: VLPGFENILFAHSSWYTYAAMLRIYKHWDFNIIDKDTSSSRLSFSSYPGFLESLDDFYILSSGLILLQTTNSVFNKTLLKQVIPETLLSWQRVRVANMMADSGKRWADIFSKYNSGTYNNQYMVLDLKKVKLNHSLDKGTLYIVEQIPTYVEYSEQTDVLRKGYWPSYNVPFHEKIYNWSGYPLLVQKLGLDYSYDLAPRAKIFRRDQGKVTDTASMKYIMRYNNYKKDPYSRGDPCNTICCREDLNSPNPSPGGCYDTKVADIYLASQYTSYAISGPTVQGGLPVFRWDRFNKTLHQGMAEVYNFDFITMKPILK
Vmax ([1]; didecanoyl-PC substrate, Hanes plots, protein stored for 15 weeks): 21.4 nM/min/mg
activity increase by pre-incubation with released materials from PMA-induced neutrophils ([1]; pre-incubation 15 min at 37° C.): ~30%
activity increase by pre-incubation with released materials from PMA-induced neutrophils ([1]; pre-incubation 15 min at room temperature): about 10%
deacylation activity on PI ([1]; stored purified protein): showed deacylation activity
removal of fatty acid from the sn-2 position [2]: removed fatty acid from the sn-2 position
